Measured values taken from patent publication US9284543B2, “Neutral active soluble truncated PH20 polypeptides and uses thereof” (Halozyme, Inc., priority 2008, dated 2016).
Values belong to the molecule of their own block, whether it stands above or below them.

Tests used:
CHO-S cells [1] = assay: PI-PLC treatment of expressing cells, Western blot of media and cells; type: cell-based, Chinese Hamster; conditions: cells incubated with PI-PLC for 2 hours
Description: In this example, following transient expression, as described in Example 2 above, the media and cells were harvested separately and analyzed for PH20 expression and solublility by Western blot analysis. Solubility of the C-terminus truncation mutants was determined by examining whether the expressed protein was present in the growth media or in the cells. […] Cells expressing these mutants were treated with phosphoinositol-phospholipase C (PI-PLC), which cleaves the GPI-anchor allowing the release of soluble protein into the media, and the presence of PH20 in the resulting media and cells was determined by Western blot analysis.
Following expression of rHuPH20 in CHO—S cells for 72 hours, as described in Example 2A above, the media and cells were harvested separately. The cells were washed with serum-free media followed by the addition of 2 mL serum-free media per well. PI-PLC (0.5 units/well) was added to each well and the cells were incubated in the PI-PLC for 2 hours. The resultant media and cells were analyzed by Western blot analysis as described above.
Two plates each of rHuPH20 expressing CHO—S cells, one for treatment with PI-PLC and one without treatment with PI-PLC, were prepared for each C-terminus mutant as described in Example 2B above. Following expression for 48 hours, for cells untreated with PI-PLC, the media and cells were harvested separately. The harvested media was spun down, concentrated to a volume of 10 mL, and buffer exchanged into PBS using an Amicon 30 kD MWCO concentrator. The cells were rinsed with cold PBS and scraped and resuspended in 1.2 mL PBS with protease inhibitor Set III (Cat No. 539134, Calbiochem). The resuspended cells were briefly sonicated to prepare whole-cell extract. For PI-PLC treatment of cells, following expression for 48 hours, the untreated media was harvested, as described above. The cells were rinsed once with fresh CD DG44 medium with Glutamax-1, and the media was replaced with 12 mL fresh detergent free CD DG44 medium supplemented with Glutamax-1 with 3.0 units PI-PLC per dish, and the cells were incubated for 2 hours at 37° C. with 5% CO2. After 2 hours, the PI-PLC media and cells were harvested separately, as described above. The resultant untreated media and cells, and PI-PLC treated media and cells, were analyzed by Western blot analysis as described above.

[2] = Microtiter hyaluronidase activity assay with biotinylated-hyaluronic acid; type: biochemical; conditions: for pH 5.5 Activity / pH 7.4 Activity: 72 hour post transfection supernatant
[3] = Triton X-114 partition assay; type: physicochemical; conditions: partition into aqueous phase of Triton X-114 at 37° C.
Description: Solubility of a hyaluronidase can be determined by any method known to one of the skill in the art. One method for determining solubility is by detergent partitioning. […] For example, the solubility of the PH20 polypeptides described herein is assessed as described in Example 4. Membrane-anchored hyaluronidases, such as lipid-anchored hyaluronidases, including GPI-anchored hyaluronidases, will partition into the detergent-rich phase, but will partition into the detergent-poor or aqueous phase following treatment with Phospholipase C. Phospholipase C is an enzyme that cleaves the […] found in GPI-anchored proteins. Treatment with PLC will cause release of GPI-linked proteins from the outer cell membrane.
The samples were heated to 37° C. for 3 minutes to induce phase separation and centrifuged for 3 min at 4000 g at room temperature. Aqueous and detergent phases were removed for SDS-PAGE analysis and Western blotting. Rabbit anti-PH20 IgG (0.5 μg/mL) was used as the primary antibody and HRP-conjugated goat anti-Rabbit IgG (0.1 ng/mL, Cat#DC03L, EMD) was used as the secondary antibody. Full length human PH20, which partitions strongly into the detergent phase, was used as a control.

CHO-S cells [4] = assay: Western blot analysis of PH20 expression in media and cells after transient expression; type: cell-based, Chinese Hamster; conditions: media versus cells
How it was run: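 CHO-S cells were transiently transfected with mutant PH20-HZ24 plasmids using GeneJuice and expressed for 48-72 h at 37 °C, 5% CO2. Media and cells were harvested separately, with PI-PLC treatment used to release GPI-anchored protein. Non-reduced samples were blotted with rabbit anti-PH20 (0.5 μg/mL), and a band near 66 kDa was scored as PH20.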

pH 5.5 Activity ([2]; Table 6): 0.837 Units/ml | pH 7.4 Activity ([2]; Table 6): 1.458 Units/ml | pH 5.5 Activity ([2]; Table 6A): 0.932 Units/ml | pH 7.4 Activity ([2]; Table 6A): 1.863 Units/ml
B1: SPAM1-IISS: C-terminally truncated human PH20, precursor 505 aa (SEQ ID NO:4), mature 470 aa (SEQ ID NO:56) (protein, listed as Homo sapiens)
chain 1: MGVLKFKHIFFRSFVKSSGVSQIVFTFLLIPCCLTLNFRAPPVIPNVPFLWAWNAPSEFCLGKFDEPLDMSLFSFIGSPRINATGQGVTIFYVDRLGYYPYIDSITGVTVNGGIPQKISLQDHLDKAKKDITFYMPVDNLGMAVIDWEEWRPTWARNWKPKDVYKNRSIELVQQQNVQLSLTEATEKAKQEFEKAGKDFLVETIKLGKLLRPNHLWGYYLFPDCYNHHYKKPGYNGSCFNVEIKRNDDLSWLWNESTALYPSIYLNTQQSPVAATLYVRNRVREAIRVSKIPDAKSPLPVFAYTRIVFTDQVLKFLSQDELVYTFGETVALGASGIVIWGTLSIMRSMKSCLLLDNYMETILNPYIINVTLAAKMCSQVLCQEQGVCIRKNWNSSDYLHLNPDNFAIQLEKGGKFTVRGKPTLEDLEQFSEKFYCSCYSTLSCKEKADVKDTDAVDVCIADGVCIDAFLKPPMETEEPQIFYNASPSTLSATMFIVSILFLIISS
chain 2: LNFRAPPVIPNVPFLWAWNAPSEFCLGKFDEPLDMSLFSFIGSPRINATGQGVTIFYVDRLGYYPYIDSITGVTVNGGIPQKISLQDHLDKAKKDITFYMPVDNLGMAVIDWEEWRPTWARNWKPKDVYKNRSIELVQQQNVQLSLTEATEKAKQEFEKAGKDFLVETIKLGKLLRPNHLWGYYLFPDCYNHHYKKPGYNGSCFNVEIKRNDDLSWLWNESTALYPSIYLNTQQSPVAATLYVRNRVREAIRVSKIPDAKSPLPVFAYTRIVFTDQVLKFLSQDELVYTFGETVALGASGIVIWGTLSIMRSMKSCLLLDNYMETILNPYIINVTLAAKMCSQVLCQEQGVCIRKNWNSSDYLHLNPDNFAIQLEKGGKFTVRGKPTLEDLEQFSEKFYCSCYSTLSCKEKADVKDTDAVDVCIADGVCIDAFLKPPMETEEPQIFYNASPSTLSATMFIVSILFLIISS
modifications: HuPH20 precursor 1-505; mature HuPH20 36-505
Expressed in Media Following Addition of PI-PLC (CHO-S cells [1]): YES

pH 5.5 Activity ([2]; Table 6): 0.6345 Units/ml | pH 7.4 Activity ([2]; Table 6): 0.9405 Units/ml | pH 5.5 Activity ([2]; Table 6A): 0.648 Units/ml | pH 7.4 Activity ([2]; Table 6A): 1.094 Units/ml
B2: SPAM1-FLII: C-terminally truncated human PH20, precursor 503 aa (SEQ ID NO:5), mature 468 aa (SEQ ID NO:57) (protein, listed as Homo sapiens)
chain 1: MGVLKFKHIFFRSFVKSSGVSQIVFTFLLIPCCLTLNFRAPPVIPNVPFLWAWNAPSEFCLGKFDEPLDMSLFSFIGSPRINATGQGVTIFYVDRLGYYPYIDSITGVTVNGGIPQKISLQDHLDKAKKDITFYMPVDNLGMAVIDWEEWRPTWARNWKPKDVYKNRSIELVQQQNVQLSLTEATEKAKQEFEKAGKDFLVETIKLGKLLRPNHLWGYYLFPDCYNHHYKKPGYNGSCFNVEIKRNDDLSWLWNESTALYPSIYLNTQQSPVAATLYVRNRVREAIRVSKIPDAKSPLPVFAYTRIVFTDQVLKFLSQDELVYTFGETVALGASGIVIWGTLSIMRSMKSCLLLDNYMETILNPYIINVTLAAKMCSQVLCQEQGVCIRKNWNSSDYLHLNPDNFAIQLEKGGKFTVRGKPTLEDLEQFSEKFYCSCYSTLSCKEKADVKDTDAVDVCIADGVCIDAFLKPPMETEEPQIFYNASPSTLSATMFIVSILFLII
chain 2: LNFRAPPVIPNVPFLWAWNAPSEFCLGKFDEPLDMSLFSFIGSPRINATGQGVTIFYVDRLGYYPYIDSITGVTVNGGIPQKISLQDHLDKAKKDITFYMPVDNLGMAVIDWEEWRPTWARNWKPKDVYKNRSIELVQQQNVQLSLTEATEKAKQEFEKAGKDFLVETIKLGKLLRPNHLWGYYLFPDCYNHHYKKPGYNGSCFNVEIKRNDDLSWLWNESTALYPSIYLNTQQSPVAATLYVRNRVREAIRVSKIPDAKSPLPVFAYTRIVFTDQVLKFLSQDELVYTFGETVALGASGIVIWGTLSIMRSMKSCLLLDNYMETILNPYIINVTLAAKMCSQVLCQEQGVCIRKNWNSSDYLHLNPDNFAIQLEKGGKFTVRGKPTLEDLEQFSEKFYCSCYSTLSCKEKADVKDTDAVDVCIADGVCIDAFLKPPMETEEPQIFYNASPSTLSATMFIVSILFLII
modifications: HuPH20 precursor 1-503; mature HuPH20 36-503
Expressed in Media Following Addition of PI-PLC (CHO-S cells [1]): YES

pH 5.5 Activity ([2]; Table 6): 0.891 Units/ml | pH 7.4 Activity ([2]; Table 6): 1.8045 Units/ml
B3: SPAM1-VASL: full length human PH20, precursor 509 aa (SEQ ID NO:1), mature 474 aa (SEQ ID NO:108) (protein, listed as Homo sapiens)
chain: MGVLKFKHIFFRSFVKSSGVSQIVFTFLLIPCCLTLNFRAPPVIPNVPFLWAWNAPSEFCLGKFDEPLDMSLFSFIGSPRINATGQGVTIFYVDRLGYYPYIDSITGVTVNGGIPQKISLQDHLDKAKKDITFYMPVDNLGMAVIDWEEWRPTWARNWKPKDVYKNRSIELVQQQNVQLSLTEATEKAKQEFEKAGKDFLVETIKLGKLLRPNHLWGYYLFPDCYNHHYKKPGYNGSCFNVEIKRNDDLSWLWNESTALYPSIYLNTQQSPVAATLYVRNRVREAIRVSKIPDAKSPLPVFAYTRIVFTDQVLKFLSQDELVYTFGETVALGASGIVIWGTLSIMRSMKSCLLLDNYMETILNPYIINVTLAAKMCSQVLCQEQGVCIRKNWNSSDYLHLNPDNFAIQLEKGGKFTVRGKPTLEDLEQFSEKFYCSCYSTLSCKEKADVKDTDAVDVCIADGVCIDAFLKPPMETEEPQIFYNASPSTLSATMFIVSILFLIISSVASL
modifications: Human PH20 cDNA encoding amino acids 1-509
Expressed in Media Following Addition of PI-PLC (CHO-S cells [1]): YES | Soluble ([3]; listed as Full length PH20): insoluble

pH 5.5 Activity ([2]; Table 6A): 0.203 Units/ml | pH 7.4 Activity ([2]; Table 6A): 0.527 Units/ml
B4: SPAM1-IVSI: C-terminally truncated human PH20, precursor 498 aa (SEQ ID NO:49), mature 463 aa (SEQ ID NO:101) (protein, listed as Homo sapiens)
chain 1: MGVLKFKHIFFRSFVKSSGVSQIVFTFLLIPCCLTLNFRAPPVIPNVPFLWAWNAPSEFCLGKFDEPLDMSLFSFIGSPRINATGQGVTIFYVDRLGYYPYIDSITGVTVNGGIPQKISLQDHLDKAKKDITFYMPVDNLGMAVIDWEEWRPTWARNWKPKDVYKNRSIELVQQQNVQLSLTEATEKAKQEFEKAGKDFLVETIKLGKLLRPNHLWGYYLFPDCYNHHYKKPGYNGSCFNVEIKRNDDLSWLWNESTALYPSIYLNTQQSPVAATLYVRNRVREAIRVSKIPDAKSPLPVFAYTRIVFTDQVLKFLSQDELVYTFGETVALGASGIVIWGTLSIMRSMKSCLLLDNYMETILNPYIINVTLAAKMCSQVLCQEQGVCIRKNWNSSDYLHLNPDNFAIQLEKGGKFTVRGKPTLEDLEQFSEKFYCSCYSTLSCKEKADVKDTDAVDVCIADGVCIDAFLKPPMETEEPQIFYNASPSTLSATMFIVSI
chain 2: LNFRAPPVIPNVPFLWAWNAPSEFCLGKFDEPLDMSLFSFIGSPRINATGQGVTIFYVDRLGYYPYIDSITGVTVNGGIPQKISLQDHLDKAKKDITFYMPVDNLGMAVIDWEEWRPTWARNWKPKDVYKNRSIELVQQQNVQLSLTEATEKAKQEFEKAGKDFLVETIKLGKLLRPNHLWGYYLFPDCYNHHYKKPGYNGSCFNVEIKRNDDLSWLWNESTALYPSIYLNTQQSPVAATLYVRNRVREAIRVSKIPDAKSPLPVFAYTRIVFTDQVLKFLSQDELVYTFGETVALGASGIVIWGTLSIMRSMKSCLLLDNYMETILNPYIINVTLAAKMCSQVLCQEQGVCIRKNWNSSDYLHLNPDNFAIQLEKGGKFTVRGKPTLEDLEQFSEKFYCSCYSTLSCKEKADVKDTDAVDVCIADGVCIDAFLKPPMETEEPQIFYNASPSTLSATMFIVSI
modifications: HuPH20 precursor 1-498; Mature HuPH20 36-498
Expressed in Media (CHO-S cells [4]): YES | Expressed in Media Following Addition of PI-PLC (CHO-S cells [1]): Initially in media | Soluble [3]: YES | Hyaluronidase activity (in words) ([2]; pH 7.4 and pH 5.5): little detectable activity
